How the values were obtained:
[1] = target: biotinylated human CD40 (human) (UniProt P25942); assay: SPR, BIAcore 3000, Fab injected alone over biotinylated human CD40 on SA chip
[2] = target: biotinylated human CD40 (human) (UniProt P25942); assay: SPR, BIAcore 3000 COINJECT over biotinylated human CD40; mixture after first injection; competitor BMS3h-56-5
[3] = target: biotinylated human CD40 (human) (UniProt P25942); assay: SPR, BIAcore 3000 COINJECT over biotinylated human CD40; mixture after first injection; competitor BMS3h-193-12
[4] = target: biotinylated human CD40 (human) (UniProt P25942); assay: SPR, BIAcore 3000 COINJECT over biotinylated human CD40; mixture after first injection; competitor G28-5 Fab
[5] = target: biotinylated human CD40 (human) (UniProt P25942); assay: SPR, BIAcore 3000, 1 µM Fab alone over biotinylated human CD40
[6] = target: biotinylated human CD40 (human) (UniProt P25942); assay: SPR, BIAcore 3000 COINJECT over biotinylated human CD40; mixture after first injection; competitor Chi220 Fab

Sequence of biotinylated human CD40 (human) (P25942 21-193 limits assumed): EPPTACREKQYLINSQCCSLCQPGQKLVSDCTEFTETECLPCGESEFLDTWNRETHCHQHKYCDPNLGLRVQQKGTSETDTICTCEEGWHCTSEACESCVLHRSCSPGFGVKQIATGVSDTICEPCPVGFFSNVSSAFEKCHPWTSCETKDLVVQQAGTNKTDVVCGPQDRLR

Substance	RU first dAb/Fab alone [1]	Second Injection (% of single dAb/Fab RU) [2]	Second Injection (% of single dAb/Fab RU) [3]	Second Injection (% of single dAb/Fab RU) [4]	Single dAb RU [5]	Second Injection (% of single dAb/Fab RU) [6]
Chi220 Fab'	1090 RU	98%	98%	39%		
G28-5 Fab'	730 RU	94%	93%		730 RU	11%

— patent publication US20200199244A1
